B1: VH:VL chains; a variant is named by its letters at X, in order (parent)
chain 1: QVQLVQSGAEVKKPGASVKVSCKASGYTFTDYXMHWVRQAPGQGLEWMGXVNPNXXXTTYNQKFEGRVTMTTDTSTSTAYMELRSLRSDDTAVYYCARXNXLDXWGQGTTVTVSS
chain 2: DIQMTQSPSSLSASVGDRVTITCSVSSSVSSIYLHWYQQKPGKAPKLLIYSTSNLASGVPSRFSGSGSGTDFTLTISSLQPEDFATYYCQVYSGYPLTFGGGTKVEIK

Variants of: B1
Test: yeast display scFab, FACS + sequencing
Outline: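 Heavy-chain CDR mutant scFab yeast surface library, FACS-sorted after labelling with biotinylated ovalbumin (260 μg/mL in PBSB, 3 h, room temperature) or soluble membrane proteins (130 μg/mL, 20 min on ice), plus anti-Myc. Gates collected the top 25% and bottom 10% of binders, and samples from two replicates were deep sequenced. Non-specific binding call: a sequence was positive if found in ≥3 of 4 positive samples (membrane protein and ovalbumin pooled) and no negatives, and negative by the converse rule.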
In the case of STGRADWA, the non-specific binding call is reported as “no binding”. With VTGGDDSA the non-specific binding call was “no binding”. With YTGTGSGA the non-specific binding call was “no binding”. For DTGTGDGV, the non-specific binding call was “no binding”. In the case of VTGGDSLV, the non-specific binding call is reported as “no binding”. In the case of VTGGDSGD, the non-specific binding call is reported as “no binding”. With VTGTGAAV the non-specific binding call was “no binding”. In the case of VTGTGAAD, the non-specific binding call is reported as “no binding”. In the case of VTGTGAVV, the non-specific binding call is reported as “no binding”. With VTGTGAVY the non-specific binding call was “no binding”. For DTGKDAGD, the non-specific binding call was “no binding”. For FTGRGSAD, the non-specific binding call was “binds”. With FTGRGAGV the non-specific binding call was “binds”. In the case of FTGRGAVA, the non-specific binding call is reported as “binds”. With VTGGDDGY the non-specific binding call was “no binding”. In the case of YTGGNDAD, the non-specific binding call is reported as “no binding”. In the case of ATGRADGV, the non-specific binding call is reported as “no binding”. For DTGTGSSA, the non-specific binding call was “no binding”. With DTGTGSGA the non-specific binding call was “no binding”. For ATGRASLD, the non-specific binding call was “no binding”. With ATGGGYVA the non-specific binding call was “binds”. For DTGTGSVD, the non-specific binding call was “no binding”. With VTGTGDVY the non-specific binding call was “no binding”. For VTGTGDVV, the non-specific binding call was “no binding”. With VTGTGDAV the non-specific binding call was “no binding”. For VTGTGDAD, the non-specific binding call was “no binding”. With ATGGDSGD the non-specific binding call was “no binding”. In the case of VTGGDSVD, the non-specific binding call is reported as “no binding”. With DTGGGAWD the non-specific binding call was “no binding”. For DTGTGDSA, the non-specific binding call was “no binding”. In the case of ATGRADWA, the non-specific binding call is reported as “no binding”. In the case of VTGGDDWY, the non-specific binding call is reported as “no binding”. With VTGGDDWF the non-specific binding call was “no binding”. In the case of VTGGDDWV, the non-specific binding call is reported as “no binding”. In the case of VTGGGDGS, the non-specific binding call is reported as “no binding”. For VTGGGDGA, the non-specific binding call was “no binding”. In the case of VTGGDSSA, the non-specific binding call is reported as “no binding”. For VTGGDSSD, the non-specific binding call was “no binding”. For DTGRADWA, the non-specific binding call was “no binding”. In the case of DTGTGDAA, the non-specific binding call is reported as “no binding”. With DTGTGALV the non-specific binding call was “no binding”. In the case of ATGTGSGA, the non-specific binding call is reported as “no binding”. With DTGGSASA the non-specific binding call was “no binding”. For VTGTGSLD, the non-specific binding call was “no binding”. For VTGTGSLV, the non-specific binding call was “no binding”. In the case of YTGRAALA, the non-specific binding call is reported as “no binding”. In the case of STGGDDVY, the non-specific binding call is reported as “no binding”. For DTGGDDWF, the non-specific binding call was “no binding”. With DTGTGAGV the non-specific binding call was “no binding”. For DTGTGAGD, the non-specific binding call was “no binding”. For DTGTGDVA, the non-specific binding call was “no binding”. For DTGTGDVF, the non-specific binding call was “no binding”. In the case of FTGTGSGA, the non-specific binding call is reported as “no binding”. With VTGRAALA the non-specific binding call was “no binding”. For YTGRGSLD, the non-specific binding call was “binds”. In the case of YTGGDDVV, the non-specific binding call is reported as “no binding”. In the case of YTGGDDVD, the non-specific binding call is reported as “no binding”. In the case of YTGGDDVY, the non-specific binding call is reported as “no binding”. In the case of VTGGDDVY, the non-specific binding call is reported as “no binding”. In the case of YTGKSVAV, the non-specific binding call is reported as “binds”. With VTGGDSWF the non-specific binding call was “no binding”. For STGRAALA, the non-specific binding call was “no binding”. In the case of STGGDDGF, the non-specific binding call is reported as “no binding”. With FTGRAYGF the non-specific binding call was “binds”. In the case of VTGTGSVD, the non-specific binding call is reported as “no binding”. In the case of STGGNDAD, the non-specific binding call is reported as “no binding”. In the case of DTGGGAGA, the non-specific binding call is reported as “no binding”. For FTGRAAAV, the non-specific binding call was “no binding”. For DTGRGSGV, the non-specific binding call was “no binding”. For VTGGGASF, the non-specific binding call was “no binding”. With YTGGDSVD the non-specific binding call was “no binding”. With YTGGDSVA the non-specific binding call was “no binding”. In the case of YTGGGDGV, the non-specific binding call is reported as “no binding”. With STGTGALA the non-specific binding call was “no binding”. In the case of VTGKGDGV, the non-specific binding call is reported as “no binding”. For VTGTGAGV, the non-specific binding call was “no binding”. With VTGTGSSD the non-specific binding call was “no binding”. In the case of VTGTGSSA, the non-specific binding call is reported as “no binding”. In the case of DTGGGDLA, the non-specific binding call is reported as “no binding”. In the case of YTGRGSAA, the non-specific binding call is reported as “binds”. For VTGTGDGV, the non-specific binding call was “no binding”. For VTGTGDGA, the non-specific binding call was “no binding”. In the case of YTGGDDWV, the non-specific binding call is reported as “no binding”. In the case of DTGTGDWV, the non-specific binding call is reported as “no binding”. In the case of STGKGSGV, the non-specific binding call is reported as “no binding”. With VTGGSDVY the non-specific binding call was “no binding”. With VTGRGDVF the non-specific binding call was “no binding”. With VTGRGDVA the non-specific binding call was “no binding”. For VTGGDYAV, the non-specific binding call was “no binding”. In the case of FTGRGAAA, the non-specific binding call is reported as “binds”. For VTGTASSV, the non-specific binding call was “no binding”. In the case of YTGTGAVF, the non-specific binding call is reported as “no binding”. With VTGRGDLA the non-specific binding call was “no binding”. For ATGGDDWF, the non-specific binding call was “no binding”. In the case of ATGRAAGD, the non-specific binding call is reported as “no binding”. For VTGGDSAS, the non-specific binding call was “no binding”. In the case of YTGRGSGV, the non-specific binding call is reported as “binds”. In the case of STGTGSGA, the non-specific binding call is reported as “no binding”. For VTGTGDWF, the non-specific binding call was “no binding”. With VTGTGDWV the non-specific binding call was “no binding”. For DTGTGASD, the non-specific binding call was “no binding”. For VTGTGSGD, the non-specific binding call was “no binding”. In the case of VTGTGSGF, the non-specific binding call is reported as “no binding”. For VTGRAAWV, the non-specific binding call was “no binding”. For DTGGGDAA, the non-specific binding call was “no binding”. With DTGGGDAY the non-specific binding call was “no binding”. In the case of DTGGGDAV, the non-specific binding call is reported as “no binding”. With STGGGDGV the non-specific binding call was “no binding”. In the case of ATGRADVY, the non-specific binding call is reported as “no binding”.
